From patent publication US20230167200A1 (BIOTHEUS, published 2023) come the findings set out here.

For assay [1], the target named is T1, anti-PD-1/TIGIT/human serum albumin trispecific antibody Bi-70-71. As to the kind of experiment: flow cytometry on CHO-hTIGIT cells.
For assay [2], the target named is T2, anti-PD-1/TIGIT/human serum albumin trispecific antibody Bi-72-73. The experiment in a line: flow cytometry on CHO-hTIGIT cells. A general note: Flow cytometry measures light scatter and fluorescence of single cells or particles in a stream.
In assay [3] the target is T1, anti-PD-1/TIGIT/human serum albumin …. As to the kind of experiment: BLI (Octet), antibody held on PD-1 sensor, human TIGIT 100 nM in solution. A general note: Biolayer interferometry detects binding as a change in optical thickness at a sensor tip.
For assay [4], the target named is T2, anti-PD-1/TIGIT/human serum albumin …. The assay is described as above.
For assay [5], the target named is T3, human PD-L1 expressed on CHO cells (CHO-hPD-L1 cells) (human, UniProt Q9NZQ7 19-290).
T3 construct: whole, on cells; also called CHO-KI-PD-L1/PD-L2
The experiment in a line: flow cytometry on CHO-hPD-L1 cells.

Assay [6] deals with T4, human PD-L2 expressed on CHO cells (CHO-hPD-L2 cells) (human, UniProt Q9BQ51 20-273).
T4 construct: whole, on cells; also called CHO-KI-PD-L1/PD-L2
T4 sequence (looked up): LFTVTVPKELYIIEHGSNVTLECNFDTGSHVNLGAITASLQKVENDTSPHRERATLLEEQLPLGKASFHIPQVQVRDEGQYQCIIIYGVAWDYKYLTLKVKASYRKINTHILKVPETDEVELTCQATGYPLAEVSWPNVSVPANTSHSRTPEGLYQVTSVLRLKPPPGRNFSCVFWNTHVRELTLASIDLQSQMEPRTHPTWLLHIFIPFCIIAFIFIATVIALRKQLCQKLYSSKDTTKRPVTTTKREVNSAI
The experiment in a line: flow cytometry on CHO-hPD-L2 cells.

T3 sequence (Q9NZQ7 19-290): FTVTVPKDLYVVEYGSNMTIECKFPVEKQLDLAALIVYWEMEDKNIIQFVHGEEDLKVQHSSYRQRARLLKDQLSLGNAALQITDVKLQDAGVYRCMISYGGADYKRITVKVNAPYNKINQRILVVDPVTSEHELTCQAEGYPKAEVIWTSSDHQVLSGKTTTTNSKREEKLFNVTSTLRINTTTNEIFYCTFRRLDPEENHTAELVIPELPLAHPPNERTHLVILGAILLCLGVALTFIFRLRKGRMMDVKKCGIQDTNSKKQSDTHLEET

B1: human TIGIT expressed on CHO cells (CHO-hTIGIT cells) (receptor, UniProt Q495A1 22-244, looked up)
chain: MMTGTIETTGNISAEKGGSIILQCHLSSTTAQVTQVNWEQQDQLLAICNADLGWHISPSFKDRVAPGPGLGLTLQSLTVNDTGEYFCIYHTYPDGTYTGRIFLEVLESSVAEHGARFQIPLLGAMAATLVVICTAVIVVVALTRKKKALRIHSVEGDLRRKSAGQEEWSPSAPSPPGSCVQAEAAPAGLCGEQRGEDCAELHDYFNVLSYRSLGNCSFFTETG
notes: whole, on cells; also called CHO-hTIGIIT
For B1, the binding result in assay [1] and in assay [2] was “binds” throughout.

B2: human TIGIT (ACROBiosystems) (receptor, UniProt Q495A1 22-141, looked up)
chain: MMTGTIETTGNISAEKGGSIILQCHLSSTTAQVTQVNWEQQDQLLAICNADLGWHISPSFKDRVAPGPGLGLTLQSLTVNDTGEYFCIYHTYPDGTYTGRIFLEVLESSVAEHGARFQIP
notes: Bought protein
Regarding B2, the binding result in assay [3] and in assay [4] was “binds” each time.

B3: anti-PD-L1/PD-L2 bispecific antibody Fc fusion protein Bi-203-204 (bispecific antibody, human IgG1, kappa, L234A L235A, V domains shown)
V domain 1: QVQLVESGGGLVKPGGSLRLSCAASGHTFIIYAIGWFRQAPGKGLEFVATINWSGSMTNYADSVKGRFTISRDNAKNTVYLQMNSLKPDDTAVYYCAAYVGATISTAHSRYDYWGQGTLVTVSS
V domain 2: EVQLVESGGGLVQPGGSLRLSCAASGRTFSSMTIGWFRQAPGKGLEFVSGIGWTSGLTVYADSVKGRFTISRDNAKNSMYLQMNSLRAEDTAVYYCAADSMNRGQFDYWGQGTLVTVSS
B3: the binding result in assay [5] and in assay [6] was “binds” in each case.
